Measured values as given in patent US12072338B2, “Pharmaceutical peptides for the treatment of inflammatory diseases” (PROTAGONISTS LTD., priority 2007, dated 2024).

What was measured:
GRO-β = target: T1, GRO-β (Homo sapiens, UniProt P19875); test: Micro-array analysis of chemokine binding peptides: GRO-β
T1 construct: purchased 300-39
T1 sequence (P19875 35-107): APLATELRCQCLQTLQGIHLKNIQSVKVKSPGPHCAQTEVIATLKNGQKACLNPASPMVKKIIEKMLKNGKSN
Method: (§1) (1) Printing: Chemokine (CK) solution (in water) was serially diluted with Print Reagent (GenTel BioSurfaces USA) to final concentrations of 50 μg and 25 μg/ml. BSA/BSA-Biotin control solutions (in water) were diluted with Print Reagent to 100 μg/ml. Amplified stock of M13 phage control (M13KEgIII Cloning Vector, New England Biolabs, Cat.No.E8101S) was stored in Tris Buffered Saline (TBS; pH7.5, 4° C.) and diluted with Print Reagent to the working titre (10^8 pfu/μl). An automated spotting robot (16 pin print tool, 0.4 mm head; BioRobotics, UK) was used to print the CK/BSA control/M13 control, 5 repeats per sample (CK 25 μg/ml and 50 μg/ml; BSA 100 μg/ml; M13 20 μl), on PATH Protein Microarray Slides (GenTel, Prod.No. 2-1005/-1025) at […], and 50-70% relative humidity. Printed micro-array slides were stored at Room Temperature (RT) or 4° C. for at least 24 h before use.
(§2) (2) Blocking: Block Buffer (500 μl/partition; PATHblock, GenTel, Prod.No. 2-1014) was applied to the slide for 1 hour at room temp (RT). After removal of Block Buffer, the slide was air dried for 25 minutes;
(§3) (3) Phage Presented Peptide Binding: Amplified recombinant phage stock was stored in TBS and diluted with Wash Buffer to working titer (10^7 pfu/μl). Recombinant phage suspension (300 μl) was applied per partition and incubated at RT for 1 hour with gentle agitation.
(§4) (4) First Washing: The slides were washed twice with Wash Buffer 300 μl/partition).
(§5) (5) Primary Antibody (Ab) Labeling: The slides were incubated with the Primary Ab (1 mg/ml diluted ×2500 (Wash Reagent), 300 μl; Mouse Anti-M13 monoclonal Ab; Amersham Biosciences, UK; Product Code 27-9420-01) for 45 minutes at RT.
(§6) (6) Second Washing: The slides were washed twice with Wash Buffer (300 μl/partition).
(§7) (7) Secondary Ab Labeling: The slides were incubated with Secondary Ab (1.5 mg/ml diluted ×5000 (Wash Reagent), 300 μl; Cy3-conjugated AffiniPure Goat Anti-Mouse IgG; Jackson ImmunoReserch Labs, USA; Product Code 115-165-062).
(§8) (8) Third Washing: The slides were washed twice with Wash Buffer (300 μl/partition).
(§9) (9) Rinse: the slides were rinsed twice with Rinse Buffer (PATHrinse, GenTel, Prod.No. 2-1018) then dried well.
(§10) (10) Scanning: The peptide-bound, labeled slide was scanned (Laser Intensity 80%, Gain 80%, Resolution 10 μm) with a ScanArray Life Scanner (Packard BioChip Technologies, USA).
(§11) (11) Analysis: Quantitative analysis of micro-array was performed by the SpotReader program of Niles Scientific (USA) and presented as Relative Fluorescence (RF) as a function of CK concentration. Micro-array readout (Cy3 fluorescence) was quantified to determine the relative binding affinities of a CBP for the CKs and by inference, the specificity of the CBP for binding to a CK.

IL-8 = test: Micro-array analysis of chemokine binding peptides: IL-8
Method: as §1, §2, §3, §4, §5, §6, §7, §8, §9, §10, §11

Mig = target: T2, Mig (Homo sapiens, UniProt Q07325); test: Micro-array analysis of chemokine binding peptides: Mig
T2 construct: purchased 300-26
T2 sequence (Q07325 23-125): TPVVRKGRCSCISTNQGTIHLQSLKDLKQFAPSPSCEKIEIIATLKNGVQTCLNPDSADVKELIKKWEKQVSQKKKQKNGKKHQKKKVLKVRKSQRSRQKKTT
Method: as §1, §2, §3, §4, §5, §6, §7, §8, §9, §10, §11

I-TAC = target: T3, I-TAC (Homo sapiens, UniProt O14625); test: Micro-array analysis of chemokine binding peptides: I-TAC
T3 construct: purchased 300-46
T3 sequence (O14625 22-94): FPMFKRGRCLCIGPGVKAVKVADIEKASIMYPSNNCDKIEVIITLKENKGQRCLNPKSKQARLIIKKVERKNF
Method: as §1, §2, §3, §4, §5, §6, §7, §8, §9, §10, §11

I-309 = target: T4, I-309 (Homo sapiens, UniProt P22362); test: Micro-array analysis of chemokine binding peptides: I-309
T4 construct: purchased 300-37
T4 sequence (P22362 24-96): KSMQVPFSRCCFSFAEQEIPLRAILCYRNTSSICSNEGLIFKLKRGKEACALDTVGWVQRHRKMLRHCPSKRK
Method: as §1, §2, §3, §4, §5, §6, §7, §8, §9, §10, §11

MCP-1 = target: T5, MCP-1 (Homo sapiens, UniProt P13500); test: Micro-array analysis of chemokine binding peptides: MCP-1
T5 construct: purchased 300-04
Method: as §1, §2, §3, §4, §5, §6, §7, §8, §9, §10, §11

MCP-2 = target: T6, MCP-2 (Homo sapiens, UniProt P80075); test: Micro-array analysis of chemokine binding peptides: MCP-2
T6 construct: purchased 300-15
T6 sequence (P80075 24-99): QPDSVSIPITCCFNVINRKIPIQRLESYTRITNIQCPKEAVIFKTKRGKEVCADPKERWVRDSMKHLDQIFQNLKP
Method: as §1, §2, §3, §4, §5, §6, §7, §8, §9, §10, §11

MCP-4 = target: T7, MCP-4 (Homo sapiens, UniProt Q99616); test: Micro-array analysis of chemokine binding peptides: MCP-4; settings: limit = start of the upper 75% of that peptide's response range
T7 construct: purchased 300-24
Method: as §1, §2, §3, §4, §5, §6, §7, §8, §9, §10, §11

RANTES = target: T8, RANTES (Homo sapiens, UniProt P13501); test: Micro-array analysis of chemokine binding peptides: RANTES; settings: limit = start of the upper 75% of that peptide's response range
T8 construct: purchased 300-06
T8 sequence (P13501 24-91): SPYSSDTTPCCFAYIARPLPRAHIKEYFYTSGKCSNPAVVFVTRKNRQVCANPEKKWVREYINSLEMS
Method: as §1, §2, §3, §4, §5, §6, §7, §8, §9, §10, §11

Eotaxin = target: T9, Eotaxin (Homo sapiens, UniProt P51671); test: Micro-array analysis of chemokine binding peptides: Eotaxin
T9 construct: purchased 300-21
Method: as §1, §2, §3, §4, §5, §6, §7, §8, §9, §10, §11

Eotaxin 2 = target: T10, Eotaxin 2 (Homo sapiens, UniProt O00175); test: Micro-array analysis of chemokine binding peptides: Eotaxin 2
T10 construct: purchased 300-33
T10 sequence (O00175 27-119): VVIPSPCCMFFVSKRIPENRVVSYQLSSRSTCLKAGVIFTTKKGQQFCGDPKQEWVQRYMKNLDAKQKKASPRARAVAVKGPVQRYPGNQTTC
Method: as §1, §2, §3, §4, §5, §6, §7, §8, §9, §10, §11

Eotaxin 3 = target: T11, Eotaxin 3 (Homo sapiens, UniProt Q9Y258); test: Micro-array analysis of chemokine binding peptides: Eotaxin 3
T11 construct: purchased 300-48
T11 sequence (Q9Y258 24-94): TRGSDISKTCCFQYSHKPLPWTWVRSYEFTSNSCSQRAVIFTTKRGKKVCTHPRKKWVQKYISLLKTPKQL
Method: as §1, §2, §3, §4, §5, §6, §7, §8, §9, §10, §11

BCA-1 = target: T12, BCA-1 (Homo sapiens, UniProt O43927); test: Micro-array analysis of chemokine binding peptides: BCA-1
T12 construct: purchased 300-47
T12 sequence (O43927 23-109): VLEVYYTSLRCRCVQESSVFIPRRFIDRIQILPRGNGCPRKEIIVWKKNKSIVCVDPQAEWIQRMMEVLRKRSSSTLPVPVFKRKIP
Method: as §1, §2, §3, §4, §5, §6, §7, §8, §9, §10, §11

TECK = target: T13, TECK (Homo sapiens, UniProt O15444); test: Micro-array analysis of chemokine binding peptides: TECK
T13 construct: purchased 300-45
T13 sequence (O15444 24-150): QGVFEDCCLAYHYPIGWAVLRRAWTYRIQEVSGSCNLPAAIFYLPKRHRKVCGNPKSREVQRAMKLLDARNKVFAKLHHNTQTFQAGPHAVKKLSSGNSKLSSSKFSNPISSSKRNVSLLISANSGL
Method: as §1, §2, §3, §4, §5, §6, §7, §8, §9, §10, §11

Fractalkine = target: T14, Fractalkine (Homo sapiens, UniProt P78423); test: Micro-array analysis of chemokine binding peptides: Fractalkine
T14 construct: purchased 300-31
T14 sequence (P78423 25-100 limits assumed): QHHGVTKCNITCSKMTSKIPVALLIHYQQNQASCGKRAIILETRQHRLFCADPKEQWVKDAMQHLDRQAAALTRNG
Method: as §1, §2, §3, §4, §5, §6, §7, §8, §9, §10, §11

Lymphotactin = target: T15, Lymphotactin (Homo sapiens, UniProt P47992); test: Micro-array analysis of chemokine binding peptides: Lymphotactin
T15 construct: purchased 300-20
T15 sequence (P47992 22-114): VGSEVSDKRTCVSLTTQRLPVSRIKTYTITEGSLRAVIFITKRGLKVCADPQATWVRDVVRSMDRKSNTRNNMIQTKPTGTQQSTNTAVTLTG
Method: as §1, §2, §3, §4, §5, §6, §7, §8, §9, §10, §11

MDC 69 = target: T16, MDC 69 (Homo sapiens, UniProt O00626); test: Micro-array analysis of chemokine binding peptides: MDC 69
T16 construct: MDC(69aa), (CCL22 cat.no.300-36A); purchased 300-36A
T16 sequence (O00626 25-93): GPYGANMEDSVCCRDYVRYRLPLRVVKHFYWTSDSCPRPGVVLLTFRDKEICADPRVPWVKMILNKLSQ
Method: as §1, §2, §3, §4
(5) Primary Antibody (Ab) Labeling: The slides were incubated with the Primary Ab (1 mg/ml diluted ×2500 (Wash Reagent), 300 μl; Mouse Anti-M13 monoclonal Ab; Amersham Biosciences, UK; Product Code 27-9420-01) for 45 minutes at RT. […]
as §11

Sequence of IL-8 (P10145 28-99 limits assumed): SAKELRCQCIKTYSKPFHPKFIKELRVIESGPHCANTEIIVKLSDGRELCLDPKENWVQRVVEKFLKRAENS
T7 sequence (Q99616 17-98): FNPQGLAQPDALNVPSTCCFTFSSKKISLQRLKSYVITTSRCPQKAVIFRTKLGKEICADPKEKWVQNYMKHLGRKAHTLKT
T5 sequence (P13500 24-99): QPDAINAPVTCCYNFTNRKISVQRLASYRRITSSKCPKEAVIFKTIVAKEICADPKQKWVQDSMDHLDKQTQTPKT

binding to GRO-β, stated in words (GRO-β): bound
binding to IL-8, stated in words (IL-8): bound
binding to Mig, stated in words (Mig): bound
binding to I-TAC, stated in words (I-TAC): bound
binding to I-309, stated in words (I-309): bound
binding to MCP-1, stated in words (MCP-1): bound
binding to MCP-2, stated in words (MCP-2): bound
binding to MCP-4 with relatively high affinity (Relative Fluorescence Units) (MCP-4): > 15,000 RFU
binding to RANTES with relatively high affinity (Relative Fluorescence Units) (RANTES): > 15,000 RFU
binding to Eotaxin, stated in words (Eotaxin): bound
binding to Eotaxin 2, stated in words (Eotaxin 2): bound
binding to Eotaxin 3, stated in words (Eotaxin 3): bound
binding to BCA-1, stated in words (BCA-1): bound
binding to TECK, stated in words (TECK): bound
binding to Fractalkine, stated in words (Fractalkine): bound
binding to Lymphotactin, stated in words (Lymphotactin): bound
binding to MDC 69, stated in words (MDC 69): bound
Sequence: HHTCSLHFP [Ph-p16]
